The text below walks through data of doi:10.64898/2025.12.08.692793 (bioRxiv, 2025).

For this experiment, the target named is metabotropic glutamate receptor 2 (mGlu2) (human, UniProt Q14416 19-872). In words: cryo-EM structure.
Chain of metabotropic glutamate receptor 2 (mGlu2) (Q14416 19-872): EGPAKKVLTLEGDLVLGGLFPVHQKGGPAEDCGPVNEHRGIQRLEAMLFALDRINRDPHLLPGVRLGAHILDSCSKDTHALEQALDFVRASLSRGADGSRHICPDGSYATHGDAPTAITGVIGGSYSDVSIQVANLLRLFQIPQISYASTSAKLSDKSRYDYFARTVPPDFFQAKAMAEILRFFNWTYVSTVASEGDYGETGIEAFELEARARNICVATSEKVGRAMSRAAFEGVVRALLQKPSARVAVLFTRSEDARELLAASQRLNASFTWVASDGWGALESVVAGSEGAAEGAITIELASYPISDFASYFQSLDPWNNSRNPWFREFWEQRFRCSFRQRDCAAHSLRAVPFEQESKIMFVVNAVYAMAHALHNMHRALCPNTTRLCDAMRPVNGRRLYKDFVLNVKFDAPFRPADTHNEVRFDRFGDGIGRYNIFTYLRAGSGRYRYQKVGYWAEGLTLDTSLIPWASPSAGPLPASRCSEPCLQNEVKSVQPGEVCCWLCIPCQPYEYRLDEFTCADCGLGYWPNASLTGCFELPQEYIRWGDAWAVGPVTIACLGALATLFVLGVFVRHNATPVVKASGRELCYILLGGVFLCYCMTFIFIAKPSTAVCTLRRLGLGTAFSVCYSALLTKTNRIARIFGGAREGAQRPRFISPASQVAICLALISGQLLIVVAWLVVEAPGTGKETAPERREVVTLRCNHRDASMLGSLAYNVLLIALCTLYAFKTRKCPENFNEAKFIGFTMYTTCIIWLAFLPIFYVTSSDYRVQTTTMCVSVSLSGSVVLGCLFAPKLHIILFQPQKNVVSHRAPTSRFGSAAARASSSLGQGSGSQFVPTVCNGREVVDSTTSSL

Turning to LPQEYIRW [FTM peptide (Force Transduction Motif, mGlu2 residues 556-563)], the binding result was “binds”.
